The text below walks through data of patent US20220411495A1, “POSITIVE ALLOSTERIC MODULATORS OF THE CALCIUM-SENSING RECEPTOR” (VIB VZW, priority 2019, published 2022).

The test addresses T1, human CaSR wild type (hCaSR WT) (Homo sapiens, UniProt P41180, E1011Q).
T1 construct: mGlu5 signal peptide (N, cleaved yes); expressed in transfected cells
T1 sequence (P41180 20-1078 E1011Q): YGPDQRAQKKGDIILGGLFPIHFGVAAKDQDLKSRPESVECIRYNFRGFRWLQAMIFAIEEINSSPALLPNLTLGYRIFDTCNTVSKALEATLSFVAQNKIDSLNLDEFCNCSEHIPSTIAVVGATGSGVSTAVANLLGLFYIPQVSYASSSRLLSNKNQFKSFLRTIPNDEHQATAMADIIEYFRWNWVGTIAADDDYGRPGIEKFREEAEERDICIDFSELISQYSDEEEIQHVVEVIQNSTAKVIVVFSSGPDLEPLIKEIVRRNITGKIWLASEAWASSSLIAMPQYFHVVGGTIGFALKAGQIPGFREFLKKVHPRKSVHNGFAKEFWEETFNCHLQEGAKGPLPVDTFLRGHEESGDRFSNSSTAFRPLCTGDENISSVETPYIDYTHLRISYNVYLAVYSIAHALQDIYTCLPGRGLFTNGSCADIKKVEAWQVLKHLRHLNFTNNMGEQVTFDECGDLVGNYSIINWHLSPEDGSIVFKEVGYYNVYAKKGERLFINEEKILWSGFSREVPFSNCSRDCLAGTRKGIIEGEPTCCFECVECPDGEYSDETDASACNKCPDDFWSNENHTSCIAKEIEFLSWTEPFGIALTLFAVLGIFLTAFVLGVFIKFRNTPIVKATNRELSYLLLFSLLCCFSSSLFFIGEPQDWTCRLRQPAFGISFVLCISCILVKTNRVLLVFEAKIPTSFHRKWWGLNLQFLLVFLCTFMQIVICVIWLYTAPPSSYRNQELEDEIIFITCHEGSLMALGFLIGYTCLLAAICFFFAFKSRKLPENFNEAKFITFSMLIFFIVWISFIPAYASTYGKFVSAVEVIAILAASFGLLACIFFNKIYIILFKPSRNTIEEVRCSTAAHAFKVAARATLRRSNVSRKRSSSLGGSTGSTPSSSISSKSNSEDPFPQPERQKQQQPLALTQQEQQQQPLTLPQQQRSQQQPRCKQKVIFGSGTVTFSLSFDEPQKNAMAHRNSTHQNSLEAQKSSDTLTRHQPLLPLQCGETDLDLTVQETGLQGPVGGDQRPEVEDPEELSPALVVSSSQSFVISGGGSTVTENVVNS
Put plainly: IP1 accumulation assay, Flp-In HEK293 HA-hCaSR WT cells. It is filed as cell-based. Conditions: for Effect on Ca2+ concentration-response curve (IP1): increasing concentrations of PAM; for PAM activity in IP1 accumulation screen: fixed nanobody concentration 5 μM, 30 min pre-incubation. The method, then:
Nanobodies were successfully purified by immobilized metal ion affinity chromatography (IMAC) and size exclusion chromatography (SEC) prior to pharmacological characterization (FIG. 1). Each nanobody was initially screened for Gq/11 activity in the Cisbio IP1 accumulation assay as this is the primary signaling pathway of CaSR (Chavez-Abiega et al., 2020). Whole HEK293 HA-hCaSR WT cells were pre-incubated for 30 minutes at 37° C. with a fixed nanobody concentration (5 μM) prior to stimulation with the endogenous ligand Ca^2+. The well characterized positive allosteric modulator (PAM) chemical NPS R-568 and negative allosteric modulator (NAM) chemical NPS 2143 were added as reference compounds. […] No nanobodies with agonist or NAM activity were observed when all nanobodies screened in the absence or in the presence of EC80 Ca^2+, respectively (FIGS. 4A and 4B). […] Except for CaSR Nb5, the same nanobodies acted as PAMs when ERK1/2 phosphorylation was measured in the presence of EC20 Ca^2+ (FIG. 2B). Again, none of the nanobodies elicited an agonist or NAM response (FIGS. 5B and 5C).
All cell lines utilized in this study were grown at 37° C. and 5% CO2. The HEK293A (RRID: CVCL_6910) and stable Flp-In HEK293 cells were cultured in Dulbecco's Modified Eagle Medium (DMEM, #31966021) supplemented with 10% dialyzed Fetal Bovine Serum (dFBS) and 1% 10,000 units/mL penicillin and 10,000 μg/mL streptomycin mixture (pen/strep). The stable Flp-In CHO cells were cultured in F-12K medium (#21127022) supplemented with 10% dFBS and 1% pen/strep. Additionally, the stable Flp-In HEK293 and Flp-In CHO cell lines were cultured in the presence of respectively 200 and 500 μg/mL hygromycin B. For pharmacological characterization, Flp-In HEK293 HA-hCaSR WT cells were seeded in poly-D-lysine-coated clear 96 well tissue culture plates (Corning, Corning, N.Y., USA) at a density of 50,000 cells/well 18 h prior to assay. Experiments with HA-rCaSR WT and HA-hCaSR S170A required transient transfection of HEK293A cells 24 h prior to assay. DNA construct and Lipofectamine 2000 were diluted in Opti-MEM and mixed together after 5 minutes incubation at room temperature. For HA-rCaSR WT, 30 ng/well rCaSR DNA diluted in 25 μL/well Opti-MEM was mixed with 0.25 μL/well Lipofectamine 2000 in 25 μL/well Opti-MEM. For HA-hCaSR S170A, 40 ng/well […] DNA diluted in 25 μL/well Opti-MEM was mixed with 0.25 μL/well Lipofectamine 2000 in 25 μL/well Opti-MEM. The DNA:Lipofectamine 2000 mixtures were incubated 20 minutes at room temperature after which 50 μL/well was added to a poly-D-lysine-coated clear 96 well tissue culture plate. Next, 100 μL/well of a 400,000 cells/mL HEK293A cell solution prepared in culture media was added and the plate was placed at 37° C. and 5% CO2 (final cell density 40,000 cells/well).
Inositol monophosphate (IP1) accumulation was measured using the commercially available HTRF® IP1 accumulation kit (Cisbio Bioassays, Codolet, France) and an EnVision multimode plate reader (PerkinElmer, Waltham, Mass., USA). Unless stated otherwise, the cells were washed once with 100 μL/well assay buffer and stimulated for 30 minutes at 37° C. with 50 μL/well ligand(s) diluted in assay buffer supplemented with 20 mM LiCl. Following stimulation, the cells were washed once with 100 μL/well and lysed for 30 minutes at room temperature with 30 μL/well lysis buffer provided with the kit. The lysed cells were diluted 1:2 with assay buffer after which 10 μL/well was pipetted to a white 384-well OptiPlate (PerkinElmer, Waltham, Mass., USA). Next, 10 μL of a detection solution consisting of 2.5% IP1-d2 conjugate and 2.5% anti-IP1 antibody diluted in assay buffer was added to each well. Fluorophore emissions were measured after the plate was stored in the dark for 1 h. The 615/665 nm emission ratios measured upon excitation at 340 nm were converted to IP1 concentrations with an IP1 standard curve according to the manufacturer's instructions.

Where [1] appears, read: IP1 accumulation at EC20 Ca2+, three independent experiments in triplicate.

Turning to `COc1cccc([C@@H](C)NCCCc2ccccc2Cl)c1` [NPS R-568, reference compound], the “Need for pre-incubation for PAM activity (IP1)” value (5 μM, with or without 30 minutes pre-incubation at 37° C., EC20 Ca2+) is on record as “did not require pre-incubation”. Further, under “1:1 ratio, total 10 μM, alone = combined with inactive Nb7”, the “IP1 accumulation in the absence of added Ca2+” value was “did not induce IP1 accumulation”. Also, the “Max. response (fold over basal ± S.E.M.), human ortholog” value (IP1 accumulation at EC20 Ca2+) was found to be 3.89 ± 0.07 fold over basal. Also, the EC50 (IP1 accumulation at EC20 Ca2+, three independent experiments in triplicate, read-out: Potency (pEC50 ± S.E.M.), human ortholog (converted)) is 120 nM.
As for `C[C@@H](NCCCc1cccc(C(F)(F)F)c1)c1cccc2ccccc12` [cinacalcet, reference compound], the “Effect on Ca2+ concentration-response curve (IP1)” value was “leftward shift”.

B1: Nb4: llama-derived CaSR-specific nanobody acting as PAM, SEQ ID NO:5 (protein)
VHH: QVQLVESGGGLVQAGGSLRLSCAASGRTFSTYRMGWFRQGLGKEREFVAAITANGVRTFYTDSVKGRFTISRDNAKNTLYLQMNSLQPDDTAVYLCAARRKGIFTVQQAQDITDWDYWGQGTQVTVSS
modifications: CaSR Nb4
With B1, the “Effect on Ca2+ concentration-response curve (IP1)” value is recorded as “leftward shift”. Also, under “IP1 accumulation at EC20 Ca2+”, the “Max. response (fold over basal ± S.E.M.), human ortholog” value worked out at 3.74 ± 0.08 fold over basal. Besides, the “Potency (pEC50 ± S.E.M.), human ortholog” value under setting [1] was 7.08 ± 0.13. In addition, the “PAM activity in IP1 accumulation screen” value (EC20 Ca2+) is on record as “potentiated IP1 accumulation”.

B2: Nb36: llama-derived CaSR-specific nanobody acting as PAM, SEQ ID NO:7 (protein)
VHH: QVQLVESGGGLVQAGESLRLSCAASGRTFSSYRMGWFRQGPGKEREFVAAITATGVRTYYADSVKGRFTISRDNAKNTVYLQMNSLQPDDTAVYLCAARRKAIFSVQQALTITDYDDWGQGTQVTVSS
modifications: CaSR Nb36
Take B2: the “Max. response (fold over basal ± S.E.M.), human ortholog” value (IP1 accumulation at EC20 Ca2+) came to 4.78 ± 0.21 fold over basal. For the same molecule, the “Potency (pEC50 ± S.E.M.), human ortholog” value under setting [1] came out at 6.78 ± 0.17. Also, for the setting “EC20 Ca2+”, the “PAM activity in IP1 accumulation screen” value is “potentiated IP1 accumulation”.

B3: Nb2: llama-derived CaSR-specific nanobody acting as PAM, SEQ ID NO:9 (protein)
VHH: QVQLVESGGGLVQAGSSLRLSCAASGRTFSNYRMAWFRQAPGKEREFVAVISRGGGGADYADSVKGRFTISRDNVKNTVSLQMNSLKPEDTAVYFCAARISGFSYYTSVDRYDYWGQGTQVTVSS
modifications: CaSR Nb2
Consider B3, for which the “Max. response (fold over basal ± S.E.M.), human ortholog” value (IP1 accumulation at EC20 Ca2+) was 3.52 ± 0.21 fold over basal. Under setting [1], the “Potency (pEC50 ± S.E.M.), human ortholog” value was 6.71 ± 0.08. Besides, the “PAM activity in IP1 accumulation screen” value (EC20 Ca2+) is on record as “potentiated IP1 accumulation”.

B4: Nb5: llama-derived CaSR-specific nanobody, weakest PAM, SEQ ID NO:8 (protein)
VHH: QVQLVESGGRLVQDGGSLRLSCAASGLTFSDYSMGWFRQVPGKEREFVAVIRRSNDSTYYADFVKGRFTISRDNAKNTVYLQMNSLQPEDTAVYSCAADRGGVGLTSAQTYAYWGQGTQVTVSS
modifications: CaSR Nb5
For the molecule B4, the “Max. response (fold over basal ± S.E.M.), human ortholog” value (IP1 accumulation at EC20 Ca2+) is recorded as 1.88 ± 0.05 fold over basal. Besides, the “PAM activity in IP1 accumulation screen” value (EC20 Ca2+) was “potentiated IP1 accumulation”.

B5: Nb11: llama-derived CaSR-specific nanobody acting as PAM, SEQ ID NO:6 (protein)
VHH: QVQLVESGGGLVQAGGSLRLSCAASGRTFSTYRMGWFRQGPGKEREFVAAITATGVKTYYTDSVKGRFTISRDNAKNTVYLQMNSVQPEDTAVYSCAARIKAIFTAQQAATITDYDYWGQGTQVTVSS
modifications: CaSR Nb11
With B5, under “IP1 accumulation at EC20 Ca2+”, the “Max. response (fold over basal ± S.E.M.), human ortholog” value is reported as 3.50 ± 0.17 fold over basal. Under setting [1], the “Potency (pEC50 ± S.E.M.), human ortholog” value is recorded as 6.28 ± 0.07. Besides, the “PAM activity in IP1 accumulation screen” value (EC20 Ca2+) is “potentiated IP1 accumulation”.

B6: Nb15: llama-derived CaSR-specific nanobody acting as PAM, SEQ ID NO:10 (protein)
VHH: QVQLVESGGGLVQAGGSLRLSCAASGRTFNNYHMAWFRQAPGKEREFAAAISRRAGTTYYADSVKGRFTISRDNAKNTVYLQMNSLKPEDTAVYYCAADPDTYGVSYLARKYDYWGQGTQVTVSS
modifications: CaSR Nb15
On to B6, for which the “Max. response (fold over basal ± S.E.M.), human ortholog” value (IP1 accumulation at EC20 Ca2+) is reported as 3.38 ± 0.36 fold over basal. For the same molecule, the “Potency (pEC50 ± S.E.M.), human ortholog” value under setting [1] was 6.59 ± 0.03. Under “EC20 Ca2+”, the “PAM activity in IP1 accumulation screen” value is on record as “potentiated IP1 accumulation”.

B7: Nb10: llama-derived CaSR-specific nanobody acting as PAM, SEQ ID NO:3 (protein)
VHH: QVQLVESGGGLVQPGDSLRVSCAASGGSFRSYAMAWFRQAPGKEREFVAAMSGTYGSTIYSDSMKGRFTISRDNAKKMVYLRMNSLRPEDTAVYYCAGYYSGAYYGTPKTDYTEYDSWGQGTQVTVSS
modifications: CaSR Nb10
Consider B7, for which the “Max. response (fold over basal ± S.E.M.), human ortholog” value (IP1 accumulation at EC20 Ca2+) is reported as 3.36 ± 0.09 fold over basal. In addition, under setting [1], the “Potency (pEC50 ± S.E.M.), human ortholog” value was 6.33 ± 0.03. Also, the “PAM activity in IP1 accumulation screen” value (EC20 Ca2+) is “potentiated IP1 accumulation”.
